Laboratory results: patent US5985630A, “Assay for detecting inhibitors of aminoacyl-tRNA synthetases” (Zeneca Limited, priority 1993, dated 1999)

What was measured:
Type in all cases: biochemical, E. coli
[1] = tested on: T1, Nc1ncnc2c1ncn2[C@@H]1O[C@H](COP(=O)(O)OP(=O)(O)OP(=O)(O)O)[C@@H](O)[C@H]1O; assay: 3H-isoleucine-based radiolabelled (standard radiometric) assay; conditions: other: 3H-Ile assay; pH 7.4; 37.0 °C
T1 construct: endogenous in cells; enzyme partially purified in house
Description: (§1) 2. Measurement of ITRS Activity using a ^3 H-Isoleucine-Based Radiolabelled Assay
(§2) The activity of ITRS during fractionation was monitored using conditions based on the method described by Steinmetz and Weil (7), and as described below. Stock reagents used in the method are as follows:
(§3) Prepared as described above. The specific activity of the enzyme used in the present example was approximately 145 nM of product formed/minute/mg, and was about 5%-10% active. The enzyme was diluted as appropriate. It will be appreciated that the enzyme amounts in the assay can be adjusted according to the purity of the enzyme used.
(§4) The assay mixture for a final volume of 200 μl was composed of:
(§5) The standard assay (in 200 μl) was carried out in quadruplicate in Eppendorf microcentrifuge tubes. The ingredients were preincubated for 2-3 minutes at 37° C., and the reaction started by addition of approximately 20 μl of the appropriately diluted enzyme extract as described above.
(§6) The final reaction contained reagents in the following concentrations:
(§7) 0.1% bovine serum albumin […]
(§8) 200 μl of the reaction mixture was pipetted onto 1.5 cm^2 cellulose 3MM filters. […] The dried filters were placed in 20 ml scintillation vials and the radioactivity counted in 15 ml Optiphase.
(§9) The inhibition constants of two compounds were measured and the results compared with the values obtained using the standard ^3 H-isoleucine assay.

CC[C@H](C)[C@H](N)C(=O)O = tested on: T2, CC[C@H](C)[C@H](N)C(=O)O; assay: as above; conditions: other: 3H-Ile assay; pH 7.4; 37.0 °C
T2 construct: endogenous in cells; enzyme partially purified in house
Description: as §1, §2, §3, §4, §5, §6, §7, §8, §9

[2] = tested on: T1, Nc1ncnc2c1ncn2[C@@H]1O[C@H](COP(=O)(O)OP(=O)(O)OP(=O)(O)O)[C@@H](O)[C@H]1O; assay: Colorimetric assay based on valine as substrate (valine-based assay of the invention); conditions: other: colorimetric assay; pH 7.4; 37.0 °C
Description: (§10) 2. Measurement of ITRS activity using a Colorimetric Assay based on using Valine as Substrate
(§11) Incubations were set up in quadruplicate (as above) with a final volume of 200 μl as described below. Stock reagents used in the method were as follows:
as §3, §4
(§12) The standard assay (in 200 μl) was carried out in quadruplicate in Eppendorf microcentrifuge tubes. The ingredients were pre-incubated for 2-3 minutes at 37° C. and the reaction started by addition of 20 μl of appropriately diluted enzyme extract (as described above).
(§13) Thus the final reaction contained reagents in the following concentrations:
(§14) 0.12 mg of mixed tRNA species from E. coli (as described above) HPLC purified from […] available from by Sigma (UK) Ltd 1 unit/μl of inorganic pyrophosphatase and
(§15) an appropriate concentration of ITRS (for example […] of the enzyme as described above).
(§16) The samples were incubated at 37° C. for 20-60 minutes. […] The optical absorbance is then measured at a wavelength of 630 nm using a spectrophotometer.

CC(C)[C@H](N)C(=O)O = tested on: T3, CC(C)[C@H](N)C(=O)O; assay: as above; conditions: other: non-cognate amino acid substrate of ITRS; pH 7.4; 37.0 °C
T3 construct: endogenous in cells; enzyme partially purified in house
Description: as §10, §11, §3, §4, §12, §13, §14, §15, §16

Substance “E. coli ITRS (isoleucyl-tRNA synthetase) (Escherichia coli K-12)” has a Km [1] of 47 µM, a Km (CC[C@H](C)[C@H](N)C(=O)O) of 4.3 µM and a Km [2] of 48 µM. The Km (CC(C)[C@H](N)C(=O)O) was 500 µM.
